# Results reported in the DeepSol protein solubility set.
# Assay: soluble on expression in E. coli; label from the status in PepcDB or PDB records
row,Sequence,soluble on expression in E. coli
1,GAMGSSLDNPTPFPNLGPSENPLKRLLVPGEEWEFEVTAFYRGRQVFQQTISCPEGLRLVGSEVGDRTLPGWPVTLPDPGMSLTDRGVMSYVRHVLSCLGGGLALWRAGQWLWAQRLGHCHTYWAVSEELLPNSGHGPDGEVPKDKEGGVFDLGPFIVDLITFTEGSGRSPRYALWFCVGESWPQDQPWTKRLVMVKVVPTCLRALVEMARVGGASSLENTVDLHISNSHPLSLTSDQYKAYLQDLVEGMDFQGPGES,soluble
2,MGSDKIHHHHHHMNAPAHDNGRLALMLNELRLPTIGRLWPEFAERSDKEGWPATRLLGALLEHELAERAKRRIERHRTESHLDPTKTLATFDFGMVPMVSKAHVTALATGESWLEKGATILLFGPPGAGKSHLGSAIGHALIDAGYRVLFTRTSELVQKLQAARQSLQLPSALAKLDRFDLIILDDLSYARKDQAETSVLFELIAERYERKSLLITANQPFSGWNDVFPDPGMTVAAIDRLVHHSTIFELNVESYRRRKASDKQSARRRQLPDDNYEGGATIMN,not soluble
3,SLLPDIPEPLKNGTGAIDNNGVIYVGLGTAGTSWYKIDLKKQHKDWERIKSFPGGAREQSVSVFLNDELYVFGGVGKKNSESPLQVYSDVYKYSPVKNTWQKVDTISPVGLTGHTGVKLNETMVLITGGVNEHIFDKYFIDIAAAAADESEKNKVIYNYFNKPAKDYFFNKIVFIYNAKENTWKNAGELPGAGTAGSSSVMGNNFLMLINGELKPGLRTDVIYRAMWDNDKLTWLKNSQLPPSPGEQQQEGLAGAFSGYSHGVLLVGGGANFPGAKQNYTNGKFYSHEGINKKWRDEVYGLINGHWQYMGKMKQPLGYGVSVSYGDEVFLIGGENAKGKPVSSVTSFTMRDGNLLIK,not soluble
4,MASPELAEKLKKRLDGTDQEPETNPHQAPPPAPVIPQKIVENPYIPSVDTSIDDLIFKALEKKEENNNNNNNNNSNSTTTTPLEIKTERNQQHEHTTIDPRSPPPKRSILELLEQERLENELQQQSAPVPKTPVMVITKGAFPRSASPRRQQFVRENEDGNELEKRLAAQRMKKYTEEMESLVQKQVDVLDQIMSSPPPPPTSPPQLPPTPPARITSVRSDESIEEEERRRKESEETASFEELEAEIMRISRSPVPPPVLSIPPPPPPNIPLPTIPQEVQSPPSPRPTSVPPPIPSPGPSEDVNMDELIESFSDSVIFNNSMSPPPPLPPLRESSLETLEVTPEDPVTESKVEASPTPLPKATESLNESSIKALEGLEVKALEAQEASDDRPSAPTPIRDSSLPPPPPPKPETPLAIRRAGPIPTPQLLEMIHQEDCSIRPSSPTSVSHGSRPQSPAVPKKPSVTVSPLGLLCDPNLSIEKPEEMKTEDTKPVETAPAPVDEAELNDALDRRNKINEATCLTKIFPSLARMFR,not soluble
5,EEKVVAEQQADGTWLMDGWISIRKASNLLEHDLVDEAERYSTLGGYLLWQFGYIPAAGEQITVDGLIFEIVSVNKHNIGKVRVHRTQ,soluble
6,PDLIYYRNADGVFSGCNRAMEELTGKKEHQLVGLSPWDVYSKEIAQPIVDTDQKVFSDNQAITYEQWLEYPDGRKHYFELRKVPFYSKD,not soluble
7,MGSDKIHHHHHHMIYFLCSFYGEAEGIISYYKLRKEAVHSSFQIFSSEEIKLIISGTGKINAACAVGYIGSLKSKLSKDLFVNVGICGSRSRTVGECVFINKIKDVDTNKEFYPDILLKHDFEEGNLQTFSIPVTTGQVDDVCDMEGSAFFQSASKFFQKHEIALIKIVSDNANNVNVSGELVRNLIKKSMEKINSYIENYKRIFHEKNFLSDVCTGNIEKIVSRLRLTESQSIQLKKAAVAYKIRNGKEFDFEGFLSLEVKIKNDGRKYFSNLIGSMWK,not soluble
8,CFSCLNQKSNLYCLKPTICSDQDNYCVTVSASAGIGNLVTFGHSLSKTCSPACPIPEGVNVGVASMGISCCQSFLCNFS,soluble
9,MDWEERENPKRLVKTFAFPNFREALDFANRVGALAERENHHPRLTVEWGRVTVEWWTHSAGGVTEKDREMARLTDALLQR,soluble
10,GSMASAAVANYEEEIVRPVADFSPSLWGDQFLSFSIKNQVAEKYAKEIEALKEQTRNMLLATGMKLADTLNLIDTIERLGISYHFEKEIDDILDQIYNQNSNCNDLCTSALQFRLLRQHGFNISPEIFSKFQDENGKFKESLASDVLGLLNLYEASHVRTHADDILEDALAFSTIHLESAAPHLKSPLREQVTHALEQCLHKGVPRVETRFFISSIYDKEQSKNNVLLRFAKLDFNLLQMLHKQELAQVSRWWKDLDFVTTLPYARDRVVECYFWTLGVYFEPQYSQARVMLVKTISMISIVDDTFDAYGTVKELEAYTDAIQRWDINEIDRLPDYMKISYKAILDLYKDYEKELSSAGRSHIVCHAIERMKEIVRNYNVESTWFIEGYTPPVSEYLSNALATTTYYLLATTSYLGMKSATEQDFEWLSKNPKILEASVIICRVIDDTATYEVEKSRGQIATGIECCMRDYGISTKEAMAKFQNMAETAWKDINEGLLRPTPVSTEFLTPILNLARIIEVTYIHNLDGYTHPEKVLKPHIINLLVDSIKI,soluble
11,DVSQKIKDIDDQIQQLLLKQRHLLSKMASSMKSLKNCQKELISTQILQFEAQNMDVSMNDVIGFFNEREADLK,soluble
12,MSNYTIIDLNQQPHLIPSAAQWFSQKWQIPAEAYQASMQEMLTSENHVPHWWVCLNKQQDIVAGVGVIDNDFHNRADLTPNLCALYVEPTFRHQGLAGILLTTVGDFLANSGFKKLYLLTDHTTFYERYDWEFLTMVTTEEQSCARIYQKQLRQ,not soluble
13,MSTTVEKIKAIEDEMARTQKNKATSFHLGQLKAKLAKLRRELLTSASSGSGGGAGIGFDVARTGVASVGFVGFPSVGKSTLLSKLTGTESEAAEYEFTTLVTVPGVIRYKGAKIQMLDLPGIIDGAKDGRGRGKQVIAVARTCNLLFIILDVNKPLHHKQIIEKELEGVGIRLNKTPPDILIKKKEKGGISITNTVPLTHLGNDEIRAVMSEYRINSAEIAFRCDATVDDLIDVLEASSRRYMPAIYVLNKIDSLSIEELELLYRIPNAVPISSGQDWNLDELLQVMWDRLNLVRIYTKPKGQIPDFTDPVVLRSDRCSVKDFCNQIHKSLVDDFRNALVYGSSVKHQPQYVGLSHILEDEDVVTILKK,soluble
14,MPNYRGRHQTRQNWSSKPREEHSPSKGAYRDKIWSGPVSEVARQQTVYDWVTTGAYSLGSPDSWPSYPDEIILMNESRNAQTSRMSRRSATPGPRLSQDRRTRTTAPAVAPIPFQRAQPRVEVERQRIDEPVAQDLIIDDGNGTNNSNDSSICGFVEESEELVYPQWVYYLYPLIPTAPNCNNEKSYKEGGNWYNSP,not soluble
15,MAAEGDFLMRYRAVSNKLKKRFLRKPNVAEASEQFGQLAKELKQQDCPQYAAFCNLAMARCEQTLFNAPGEALALTDAARLFLASEQETRALRAPGFDENMQAAMNCYSFAIKVYIEMNQPVMAARLSLELGNALKEMNRPGEAIIHFQRAAELQIQMPIEALLSLWEMASCKILTRDYDGALAVLSEMQHMCQERGLQLPGTNTPVGAFMDIIAKCEISRVLLLMLLEPPPQKLLPEHAQTLERYAWESFDSHSQMACQEKDTESLKALQTELW,not soluble
16,GSETCIYSNWSPWSACSSSTCEKGKRMRQRMLKAQLDLSVPCPDTQDFQPCMGPGCSDEDG,soluble
17,MDAVNKFSVENWYPHLRKHTFKSHFITLNYNDIHYLMGNIPPDYDSSKLESIFNKILSEFNNKEVFMRLSTRSPKDSKFLFEEASTIMSKDFVYWNENDNKHQQLVSFVASMLKAMKIKSGRKIIETIAQSPRVYNDLLALVSSSNQSDCTTNVILREWHDIRPDHEFRVFVSRRHRKESIVTAISQYFHFLYFDKSPADCFNFLDEEDKKAVIKKFENYVLKSVDPDVAKFLNFSSEQDDDESSDCIREYIVDLALIPVSQYHGEITDENIIEIGANTYVMVVIELNPFAPAATGSGLFNWKNDLMMLWGKASCDYPVFKYRTTPREDLQSVSLLPSNYESVIKSALIKRLETLEHHHHHH,not soluble
18,MHRDSTDIEVKRASELPENLPETTCAFANMPSGGTIILGVDENRDFEVVGVADAAALEEALISQTRNSVKPAPMIECETFTLEGKQVLVAQVNPVPLQNRPAHYRGVAYLRQSDGDYGMNDADLALVEIQKLSHSENFQFDVVPVLNSSTRDLDSVRVKSFLEAARAGSRILSKKIDDQELLETLNIVTVKGAAALEHHHHHH,not soluble
19,MISPNHLILLFCVNCAFLVASDATPKRSPLGTMRFGKRAIADEMTFEEDGYYPSNVMWKRSTVDSSEPVIRDQRTPLGTMRFGKRSAEPFGTMRFGKRNPENDTPFGTMRFGKRASEDALFGTMRFGKREDGNAPFGTMKFGKREAEEPLGTMRFGKRSADDSAPFGTMRFGKRNPLGTMRFGK,not soluble
20,MGSDKIHHHHHHLTLESKYHKKPEEIEEEQLWIEKAKQNPQHFAVLYEKYYKTIFLYLFRKVNDMDVAGDLCSDVFSKALSAIQSYEYKGVPYSAWLYRIAANEANMYFRKHNKREMICIDDTSIHLLNEDLQESNEENIYLTFLPLCLERLKPDEVILVQWRFFENKAFKEVGEIMNMTENNAKVKTYRILEKIRKWMLEMKGKSNE,not soluble
21,MSHYLSPGAYLPHDAPMLLLEDVVSVSDDSAVCRVTVSPSGVLAPFLDPDGNLPGWFTLELMAQTVGVWSGWHRHQQGKNSIELGMILGARELLCTTGILPAGQTLTITVKLLMQDDRFGSFECSINDGEATGRINTFQPTAEELTTLFQQGAS,not soluble
22,MSLFITDKRVKESATALNPSMFQGLYLQDQMLKDPTYLPIYGSSELSRLDEFHPSNYFQVNNEGFTPYLVGKGGSQSLIHSLNFAAHMDQLKGKKIVFIVSPQWFIKRGSDEQHFAPNYSALQGLDLAFNDQIDPEIKKKMMKRMLRFKAVQNDAILSELYKAMVNGQTWKVNALKPAAKVYYSMLEKKDLYYSTTESSGPKRYISQSVKDKSWSELNKLADQSGKRHSGSNDFHIDNPVYKKLKPKVPKLKGKNKGRSYAVSPEYGDFEMMLDILKDAGAEPMFVTIPVNGKWYDYTGFPKKGRTDYYKKVNKQIRAKGFQVADFSGHEYDPYFMKDTIHIGWKGWVYVDKAIDEFYKTGKVTSSEGHHHHHH,not soluble
23,GAMDISPTNHHEMLQNLQTVVNELYREDVDYVADKILTRQTVMQESIARFHEIIAIDKNHLRAVEQAIEQTMHSLNAQIDVLTANRAKVQQFSSTSHVDDEDVNSIAVAKTDGLNQLYNLVAQDYALTDTIECLSRMLHRGTIPLDTFVKQGRELARQQFLVRWHIQRITSPLS,soluble
24,AVKLQESGPGILKPSQTLSLTCSFSGFSLTTYGMGVGWIRQSSGKGLEWLAHIWWDDDKYYNPSLKSRLTISKDTSRNQVFLKITSVATADTATYYCARRAPFYGNHAMDYWGQGTTVTVSSAKTTPPSVYPLAPGSAAQTNSMVTLGCLVKGYFPEPVTVTWNSGSLSSGVHTFPAVLQSDLYTLSSSVTVPSSPRPSETVTCNVAHPASSTKVDKKI,soluble
25,MTMLLSIIVPTFKPQKTYFEECLFSLFNQTMFHYLYEVIVVLNGDIDTQYTDMILDIFAYKPAGLYCRLIKTDQAGVSNARNLGIDAAKGQYIGFVDDDDIVSSDYLEELCKISSRNIVGVSNVHTFRKTIEEKEDNFFACRIIQQRECQYSLFRNRAILAFPVAKLIHRDIIGNRRFNPRFKNGEDALFMTEISDLIGGFRFTKEYTTYYVRERAGSASRRPLKRGQLCWDTFMLIKAYVSIYLSSPFSYNFLLFASRIPGSIKGAIKLSRNTAFFLEHHHHHH,not soluble
26,MAHHHHHHMANYQQQYTNAEYTLPNFFETASTVAKVLTPGGRTPTVLAVDVSGQPLLPPPPPESDFAVPEPGQLEKLLCAYVGPSHTLGLSPKQLFDEEIRARNLEMEERKKEMRAITEQYERELRECMMESEQRSVVEDARRAIDLADREALEERKRPLRMYLNHNIIPLLSKGLVEVCKRRPVDPVDFLAEWLMLHNPHDDSCFEL,not soluble
